The values that follow come from IntAct's records for PubMed 20010697.

The chains are these.
B1: Zinc finger protein ZFPM1 (Mus musculus), O35615 (parent)
chain: MSRRKQSNPRQIKRSLRDMEAGEEAKAMDSSPKEQEAPDPEAPAIEEPPSPPREDVSPPAVPAPPESPEDPEDMEGQELEMRPQDEEKEEKEEEAAMASPWSGPEELELALQDGQRCVRARLSLTEGLSWGPFYGSIQTRALSPEREEPGPAVTLMVDESCWLRMLPQVLTEEAANSEIYRKDDALWCRVTKVVPSGGLLYVRLVTEPHGAPRHPVQEPVEPGGLAPVHTDIQLLPQQAGMASILATAVINKDVFPCKDCGIWYRSERNLQAHLLYYCASRQRAGSPVSATEEKPKETYPNERVCPFPQCRKSCPSASSLEIHMRSHSGERPFVCLICLSAFTTKANCERHLKVHTDTLSGVCHNCGFISTTRDILYSHLVTNHMVCQPGSKGEIYSPGAGHPAAKLPPDSLAGFQQHSLMHSPLVPADKAPTPSSGLDSKAEVTNGETRVPPQNGGSSESPAAPRTIKVEAAEEPEATRASGPGEPGPQAPSRTPSPHSPNPVRVKTELSSPTPGSSPGPGELTMAGTLFLPQYVFSPDAGTTTVPTAPQASEILAKMSELVHNRLQQGAGSSGAAGTPTGLFSGTKGATCFECEITFNNINNFYVHKRLYCSGRRAPEDPPTVRRPKAATGPARAPAGAAAEPDPSRSSPGPGPREEEASGTTTPEAEAAGRGSEGSQSPGSSVDDAEDDPSRTLCEACNIRFSRHETYTVHKRYYCASRHDPPPRRPPAPTTAPGPAAPALTAPPVRTRRRRKLYELPAAGAPPPAAGPAPVPVVPSPTAELPSSPRPGSASAGPAPALSPSPVPDGPIDLSKRPRRQSPDAPTALPALADYHECTACRVSFHSLEAYLAHKKYSCPAAPLRTTALCPYCPPNGRVRGDLVEHLRQAHGLQVAKPAASPGAEPRTPAERAPRDSPDGRAPRSPSPAPENTPSDPADQGARTPSKGPPAPAPAPGGGGGHRYCRLCNIRFSSLSTFIAHKKYYCSSHAAEHVK
partner: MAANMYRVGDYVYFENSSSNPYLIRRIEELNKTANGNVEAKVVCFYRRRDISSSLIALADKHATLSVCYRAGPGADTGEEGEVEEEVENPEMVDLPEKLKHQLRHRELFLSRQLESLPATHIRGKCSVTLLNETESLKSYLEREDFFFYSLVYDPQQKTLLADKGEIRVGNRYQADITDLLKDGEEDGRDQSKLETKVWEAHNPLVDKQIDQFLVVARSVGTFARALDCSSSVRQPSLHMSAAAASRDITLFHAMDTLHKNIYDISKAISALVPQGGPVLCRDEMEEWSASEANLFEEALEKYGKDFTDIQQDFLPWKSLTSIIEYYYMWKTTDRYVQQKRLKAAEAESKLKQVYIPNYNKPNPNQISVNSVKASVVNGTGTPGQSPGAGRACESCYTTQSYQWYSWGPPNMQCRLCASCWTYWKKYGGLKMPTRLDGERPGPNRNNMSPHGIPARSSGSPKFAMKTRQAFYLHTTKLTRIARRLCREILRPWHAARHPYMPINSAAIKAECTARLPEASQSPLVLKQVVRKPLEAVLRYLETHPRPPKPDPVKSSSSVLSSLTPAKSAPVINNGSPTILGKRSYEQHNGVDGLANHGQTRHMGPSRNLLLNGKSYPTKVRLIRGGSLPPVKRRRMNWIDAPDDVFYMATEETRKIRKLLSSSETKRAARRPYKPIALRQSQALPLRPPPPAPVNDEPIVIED

In this assay the parent is B1. The note with it: with mta1_rat Mta1, Q62599.
On to R3A, for which the “effect of a mutation on the interaction” value is “disrupting interaction”.
On to K5A, for which the “effect of a mutation on the interaction” value is recorded as “disrupting interaction”.
